Data on five molecules can be found in article doi:10.1101/2025.09.05.674518 (bioRxiv, 2025).

Experiment [1] addresses T1, M527D MXA (Homo sapiens, UniProt P20591).
T1 chain: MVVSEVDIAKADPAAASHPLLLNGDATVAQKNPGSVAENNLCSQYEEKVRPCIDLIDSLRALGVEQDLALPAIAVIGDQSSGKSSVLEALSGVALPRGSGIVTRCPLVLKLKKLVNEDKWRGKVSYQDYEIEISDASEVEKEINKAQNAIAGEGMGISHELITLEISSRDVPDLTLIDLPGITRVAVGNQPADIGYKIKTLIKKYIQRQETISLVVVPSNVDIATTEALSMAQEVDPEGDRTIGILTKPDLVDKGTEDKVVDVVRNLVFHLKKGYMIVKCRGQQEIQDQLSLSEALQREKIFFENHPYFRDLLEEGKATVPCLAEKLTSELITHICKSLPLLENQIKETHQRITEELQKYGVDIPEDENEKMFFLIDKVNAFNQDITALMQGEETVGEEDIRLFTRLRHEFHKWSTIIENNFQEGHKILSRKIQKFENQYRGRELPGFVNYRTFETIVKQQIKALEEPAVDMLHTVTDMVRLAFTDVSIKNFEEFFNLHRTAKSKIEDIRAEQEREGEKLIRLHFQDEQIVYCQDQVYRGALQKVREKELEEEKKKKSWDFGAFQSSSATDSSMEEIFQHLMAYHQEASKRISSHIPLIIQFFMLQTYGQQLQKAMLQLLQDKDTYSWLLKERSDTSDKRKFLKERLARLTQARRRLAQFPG

Experiment [2] addresses wild-type human MXA (Myxovirus resistance protein A), MAPPIT bait or prey (Homo sapiens, UniProt P20591).
The target in experiment [3] is recombinant wild-type human MXA (Homo sapiens, UniProt P20591). In words: ELISA. A general note: ELISA stands for enzyme-linked immunosorbent assay.

Residue numbers refer to the chain shown, from its start.

B1: VHH93 (VHH)
chain: QVQLQESGGGLVQAGDSLRLSCVVSGRFLSGYAVGWFRQAPGNERDFVAAFTWIGGQTSYADSVKGRFTVSRDNAKNTLYLQMNNLKPEDTAVYYCAAKVAIVPPTTARGYDYWGQGTQVTVSS
As for B1, the binding result in experiment [1] and in experiment [2] was “binds” throughout.

B2: VHH5, His6-tagged, purified from Pichia pastoris (VHH)
VHH: QVQLQESGGGLVQAGDSLILSCAASGRTFSSSAMGWFRQAPGKEREFVAAITYSGISTEYADSVKGRFTISRDNPKSTLYLRMNSLKAEDTAVYYCAARRNGYYSRSHYSTDYEYWGRGTQVTVSS
On to B2, for which, in experiment [3], the binding result is recorded as “binds”.

B3: VHH7, His6-tagged, purified from Pichia pastoris (VHH)
VHH: QVQLQESGGGLVQAGDSLRLSCANSGRTRSAMGWFRQAPGKEREFVAAITWSGYGTYYADSVKGRFTISRDNAKNALYLRMNSLKPDDTAVYYCAARRNQYYSYSSASADYDYWGQGTQVTVSS
Regarding B3, the binding result in experiment [3] was “binds”.

B4: VHH88 (VHH)
chain: QVQLQESGGGLVQAGDSLTLSCARSGRIFNSVPMGWFRQAPGKEREIVAAISGNGVNTYYADSVKGRFAISRDSAKNTYLQMSSLKPEDTAVYYCAARVTPWDTRYYLDDYQYWGQGTQVTVSS
As to B4, the binding result in experiment [1] and in experiment [2] was “binds” each time.

B5: VHH97 (VHH)
chain: B4 chain with D16G, T19R, R24K, N30S, V56E, A69T, S74N, T104S, Q112H
Consider B5, for which the binding result in experiment [1] and in experiment [2] was “binds” each time.
